Test results taken from patent publication US20240116985A1 (published 2024).
Starred links: 1 amine or outer side, 2 acyl side, 3 side chain; linkers in the order of their positions; H or OH if unused. Positions of bridges follow the written chain, without caps; N, C: chain ends. Non-standard residues stand in square brackets, D forms with d. Primed or numbered codes have the meaning given here. B5(16) = 2-amino-2-(pent-4-en-1-yl)hept-6-enoic acid = 2,2-bis(4-pentenyl)glycine (stitching residue), C=CCCCC(CCCC=C)(N[*:1])C(=O)[*:2]; B5(4) = 2,2-bis(4-pentenyl)glycine = 2-amino-2-(pent-4-en-1-yl)hept-6-enoic acid (stitching residue), C=CCCCC(CCCC=C)(N[*:1])C(=O)[*:2]; B5(5) = 2,2-bis(4-pentenyl)glycine, 2-amino-2-(pent-4-en-1-yl)hept-6-enoic acid (stitching residue), C=CCCCC(CCCC=C)(N[*:1])C(=O)[*:2]; PyrS(3) = (S)-1-((allyloxy)carbonyl)-3-aminopyrrolidine-3-carboxylic acid, stapling residue, C=CCOC(=O)N1CC[C@@](N[*:1])(C(=O)[*:2])C1; PyrS″ = (S)-1-((allyloxy)carbonyl)-3-aminopyrrolidine-3-carboxylic acid (stapling residue), C=CCOC(=O)N1CC[C@@](N[*:1])(C(=O)[*:2])C1; B5(21) = 2-amino-2-(pent-4-en-1-yl)hept-6-enoic acid, bis(4-pentenyl)glycine (stitching residue), C=CCCCC(CCCC=C)(N[*:1])C(=O)[*:2]; RdN = (R)-4-(((allyloxy)carbonyl)(methyl)amino)-2-amino-2-methylbutanoic acid, C=CCOC(=O)N(C)CC[C@@](C)(N[*:1])C(=O)[*:2]; PyrS = (S)-1-((allyloxy)carbonyl)-3-aminopyrrolidine-3-carboxylic acid, C=CCOC(=O)N1CC[C@@](N[*:1])(C(=O)[*:2])C1; 6F1NapA = 2-amino-3-(6-fluoronaphthalen-1-yl)propanoic acid, O=C([C@H](Cc1cccc2cc(F)ccc12)N[*:1])[*:2]; Trp(5-cPr) = 5-cyclopropyl-L-tryptophan (5CpW), O=C([C@H](Cc1c[nH]c2ccc(C3CC3)cc12)N[*:1])[*:2]; B5 = 2-amino-2-(pent-4-en-1-yl)hept-6-enoic acid, C=CCCCC(CCCC=C)(N[*:1])C(=O)[*:2]; Trp(5-CF3) = N[C@@H](Cc1c[nH]c2ccc(C(F)(F)F)cc12)C(=O)O; H2Trp = 2,3-dihydrotryptophan (indolin-3-yl alanine); Trp(5-OMe) = COc1ccc2[nH]cc(C[C@H](N)C(=O)O)c2c1; Phe(3-CF3) = N[C@@H](Cc1cccc(C(F)(F)F)c1)C(=O)O; Phe(4-CF3) = N[C@@H](Cc1ccc(C(F)(F)F)cc1)C(=O)O; Trp(5-F) = N[C@@H](Cc1c[nH]c2ccc(F)cc12)C(=O)O; S7 = C[C@@](CCCCCC=[*:3])(N[*:1])C(=O)[*:2]; Bip = N[C@@H](Cc1ccc(-c2ccccc2)cc1)C(=O)O; αAllylPro = C=CC[C@@]1(C(=O)O)CCCN1; R8 = C=CCCCCCC[C@@](C)(N)C(=O)O; S8 = C=CCCCCCC[C@](C)(N)C(=O)O; Nle = CCCC[C@H](N)C(=O)O; Aib = CC(C)(N)C(=O)O

T1: full-length beta-Catenin (Uniprot ID P35222) (Homo sapiens (Human), UniProt P35222 2-781)
T1 construct: the AlphaScreen assay uses a Histidine (Nickel Chelate) detection kit, so a His tag is likely there; also called B-Catenin; bCat
T1 sequence: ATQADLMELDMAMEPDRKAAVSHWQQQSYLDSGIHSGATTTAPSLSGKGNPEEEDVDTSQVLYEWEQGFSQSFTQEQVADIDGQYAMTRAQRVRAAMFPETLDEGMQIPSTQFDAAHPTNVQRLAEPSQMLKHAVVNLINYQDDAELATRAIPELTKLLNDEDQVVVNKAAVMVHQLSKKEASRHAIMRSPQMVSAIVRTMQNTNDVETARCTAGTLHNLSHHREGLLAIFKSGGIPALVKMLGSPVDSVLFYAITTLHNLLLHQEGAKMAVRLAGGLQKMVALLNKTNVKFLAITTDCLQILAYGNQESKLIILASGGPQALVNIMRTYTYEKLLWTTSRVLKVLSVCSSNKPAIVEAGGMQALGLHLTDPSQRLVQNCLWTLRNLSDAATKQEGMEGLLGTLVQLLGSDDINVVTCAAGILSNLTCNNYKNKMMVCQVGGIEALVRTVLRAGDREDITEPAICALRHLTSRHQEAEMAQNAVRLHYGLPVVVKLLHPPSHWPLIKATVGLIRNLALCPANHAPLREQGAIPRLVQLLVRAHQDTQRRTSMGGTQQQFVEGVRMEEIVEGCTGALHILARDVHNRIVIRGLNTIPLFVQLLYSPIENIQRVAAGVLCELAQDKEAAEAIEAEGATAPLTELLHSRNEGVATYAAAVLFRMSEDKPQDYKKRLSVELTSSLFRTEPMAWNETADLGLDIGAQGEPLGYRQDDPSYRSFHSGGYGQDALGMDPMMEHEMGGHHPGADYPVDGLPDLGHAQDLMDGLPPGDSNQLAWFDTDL

T2: full-length beta-Catenin (Uniprot ID P35222) (Homo sapiens (Human), UniProt P35222 2-781)
T2 construct: The AlphaScreen assay used a Histidine (Nickel Chelate) detection kit, so a His tag is likely, but no tag is described; also called B-Catenin; bCat
T2 sequence: T1 sequence

B1: I-150 (peptide)
peptide: DIXDDAAFQXFWH
modifications: not fully specified; as printed: Ac-Asp-Ile-RdN-Asp-Asp-Ala-Ala-Phe-Gln-S7-Phe-Trp-His-NH2; N-terminal acetyl, C-terminal amide; RdN(3), S7(10); staple RdN-S7 by olefin metathesis
notes: stapled peptide
B2: I-160 (peptide)
peptide: Ac-[Aib]DA[R8]DEAAFV[PyrS]FW[Aib]-NH2
modifications: staple 4-11; not fully specified; printed as Ac-Aib-Asp-Ala-R8-Asp-Glu-Ala-Ala-Phe-Val-PyrS-Phe-Trp-Aib-NH2
notes: stapled peptide
B3: I-136 (peptide)
peptide: XDAXDEAAFVXFXQ
modifications: not fully specified; as printed: Ac-PL3-Asp-Ala-B5-Asp-Glu-Ala-Ala-Phe-Val-S8-Phe-aMeW-Gln-NH2; N-terminal acetyl, C-terminal amide; PL3(1), B5(4), S8(11), aMeW(13); staples PL3-B5 and B5-S8 by olefin metathesis
notes: stapled peptide
B4: I-163 (peptide)
peptide: Ac-FDA[R8]DDAAFS[PyrS″]FWQ-NH2
modifications: staple 4-11; not fully specified; printed as Ac-Phe-Asp-Ala-R8-Asp-Asp-Ala-Ala-Phe-Ser-PyrS-Phe-Trp-Gln-NH2
notes: stapled peptide
B5: I-171 (peptide)
peptide: XDAXDEAAFVXFXQ
modifications: not fully specified; as printed: Ac-PL3-Asp-Ala-B5-Asp-Glu-Ala-Ala-Phe-Val-S8-Phe-5CpW-Gln-NH2; N-terminal acetyl, C-terminal amide; PL3(1), B5(4), S8(11), 5CpW(13); staples PL3-B5 and B5-S8 by olefin metathesis
notes: stapled peptide
B6: I-139 (peptide)
peptide: Ac-[αAllylPro]DA[B5(21)]D[Nle]AAFV[S8]FWQ-NH2
modifications: staple 1-4, 4-11; not fully specified; printed as Ac-PL3-Asp-Ala-B5-Asp-nLeu-Ala-Ala-Phe-Val-S8-Phe-Trp-Gln-NH2
notes: stapled peptide
B7: I-162 (peptide)
peptide: Ac-FDA[R8]DDAAFV[PyrS″]EWQ-NH2
modifications: staple 4-11; not fully specified; printed as Ac-Phe-Asp-Ala-R8-Asp-Asp-Ala-Ala-Phe-Val-PyrS-Glu-Trp-Gln-NH2
notes: stapled peptide
B8: I-137 (peptide)
peptide: XDAXDEAAFVXFXQ
modifications: not fully specified; as printed: Ac-PL3-Asp-Ala-B5-Asp-Glu-Ala-Ala-Phe-Val-S8-Phe-aMeW-Gln-NH2; N-terminal acetyl, C-terminal amide; PL3(1), B5(4), S8(11), aMeW(13); staples PL3-B5 and B5-S8 by olefin metathesis
notes: stapled peptide
B9: I-149 (peptide)
peptide: DIXDDAAFQXFWH
modifications: not fully specified; as printed: Ac-Asp-Ile-RdN-Asp-Asp-Ala-Ala-Phe-Gln-S7-Phe-Trp-His-NH2; N-terminal acetyl, C-terminal amide; RdN(3), S7(10); staple RdN-S7 by olefin metathesis
notes: stapled peptide
B10: I-161 (peptide)
peptide: Ac-FDA[R8]DDAAFV[PyrS]EWQ-NH2
modifications: staple 4-11; not fully specified; printed as Ac-Phe-Asp-Ala-R8-Asp-Asp-Ala-Ala-Phe-Val-PyrS-Glu-Trp-Gln-NH2
notes: stapled peptide
B11: I-159 (peptide)
peptide: Ac-[Aib]DA[R8]DEAAFV[PyrS″]FW[Aib]-NH2
modifications: staple 4-11; not fully specified; printed as Ac-Aib-Asp-Ala-R8-Asp-Glu-Ala-Ala-Phe-Val-PyrS-Phe-Trp-Aib-NH2
notes: stapled peptide
B12: I-138 (peptide)
peptide: Ac-[αAllylPro]DA[B5(4)]D[Nle]AAFV[S8]FWQ-NH2
modifications: staple 1-4, 4-11; not fully specified; printed as Ac-PL3-Asp-Ala-B5-Asp-nLeu-Ala-Ala-Phe-Val-S8-Phe-Trp-Gln-NH2
notes: stapled peptide
B13: I-253 (peptide)
peptide: Ac-[αAllylPro]DA[B5(4)]DDAAFV[S8][Phe(4-CF3)]WQ-NH2
modifications: staple 1-4, 4-11
notes: Stapled peptide composition; also called Ac-PL3-Asp-Ala-B5-Asp-Asp-Ala-Ala-Phe-Val-S8-4F3MeF-Trp-Gln-NH2
B14: I-241 (peptide)
peptide: Ac-[αAllylPro]DA[B5(5)]DDAA[Phe(4-CF3)]V[S8]FWQ-NH2
modifications: staple 1-4, 4-11; not fully specified; printed as Ac-PL3-Asp-Ala-B5-Asp-Asp-Ala-Ala-4F3MeF-Val-S8-Phe-Trp-Gln-NH2
notes: Stapled peptide composition; also called Ac-PL3-Asp-Ala-B5-Asp-Asp-Ala-Ala-4F3MeF-Val-S8-Phe-Trp-Gln-NH2
B15: I-249 (peptide)
peptide: Ac-[αAllylPro]DA[B5(4)]DDAAFV[S8][Phe(3-CF3)]WQ-NH2
modifications: staple 1-4, 4-11
notes: Stapled peptide composition; also called Ac-PL3-Asp-Ala-B5-Asp-Asp-Ala-Ala-Phe-Val-S8-3F3MeF-Trp-Gln-NH2
B16: I-252 (peptide)
peptide: Ac-[αAllylPro]DA[B5(4)]DDAAFV[S8][Phe(4-CF3)]WQ-NH2
modifications: staple 1-4, 4-11
notes: as for B13
B17: I-242 (peptide)
peptide: Ac-[αAllylPro]DA[B5(5)]DDAA[Phe(4-CF3)]V[S8]FWQ-NH2
modifications: staple 1-4, 4-11; not fully specified; printed as Ac-PL3-Asp-Ala-B5-Asp-Asp-Ala-Ala-4F3MeF-Val-S8-Phe-Trp-Gln-NH2
notes: as for B14
B18: I-248 (peptide)
peptide: Ac-[αAllylPro]DA[B5(4)]DDAAFV[S8][Phe(3-CF3)]WQ-NH2
modifications: staple 1-4, 4-11
notes: as for B15
B19: I-243 (peptide)
peptide: Ac-[αAllylPro]DA[B5(5)]DDAA[Phe(4-CF3)]V[S8]FWQ-NH2
modifications: staple 1-4, 4-11; not fully specified; printed as Ac-PL3-Asp-Ala-B5-Asp-Asp-Ala-Ala-4F3MeF-Val-S8-Phe-Trp-Gln-NH2
notes: as for B14

Target: T1, full-length beta-Catenin (Uniprot ID …)
Experiment: AlphaScreen competition; full-length beta-catenin with biotin-TCF4(10-53) probe as competitor
Method: (§1) Equal volume of the titrated peptide was added to the plate and incubated for 15 minutes at 20° C. Then 4 uL of donor and 4 uL acceptor beads at 10 ug/mL were added to the plate, for a 16 uL reaction pool and protected from light for 60 minutes at 20° C. prior to read. Reads were performed on a CLARIOstar plate reader (BMG Labtech) in duplicate, and data were fitted to a 1:1 binding model with hill slope using an in-house script. All provided concentrations are final concentrations.

Row | Binder | EC50
1 | B1 | 1.94 µM
2 | Ac-[αAllylPro]DA[B5(16)]DEAAFV[S8]F[H2Trp]Q-NH2 (staple 1-4, 4-11, stapled peptide) [I-168] | 5.64 µM
3 | Ac-[αAllylPro]DA[B5]DEAAFV[S8]F[Trp(5-cPr)]Q-NH2 (staple 1-4, 4-11, stapled peptide) [I-170] | 4.67 µM
4 | B2 | 3.24 µM
5 | B3 | 3.3 µM
6 | B4 | 9.75 µM
7 | Ac-[αAllylPro]DA[B5]DEAAFV[S8]F[Bip]Q-NH2 (staple 1-4, 4-11, stapled peptide composition) [I-145] | ≥ 10 µM
8 | Ac-[Aib]DA[R8]DEAAFV[PyrS(3)]FWQ-NH2 (staple 4-11; also: later-eluting staple isomer, stapled peptide) [I-158] | 2.17 µM
9 | Ac-[αAllylPro]DA[B5(16)]DEAAFV[S8]F[H2Trp]Q-NH2 (staple 1-4, 4-11, stapled peptide) [I-167] | 6.2 µM
10 | B5 | 2.07 µM
11 | Ac-[αAllylPro]DA[B5(4)]DEAAFV[S8]F[6F1NapA]Q-NH2 (staple 1-4, 4-11, stapled peptide composition) [I-142] | 7.37 µM
12 | Ac-[αAllylPro]DA[B5(4)]DEAAFV[S8]F[Trp(5-F)]Q-NH2 (staple 1-4, 4-11, stapled peptide composition) [I-146] | 1.22 µM
13 | Ac-[αAllylPro]DA[B5]DEAAFV[S8]F[Trp(5-CF3)]Q-NH2 (staple 1-4, 4-11, stapled peptide composition) [I-169] | 9.21 µM
14 | B6 | ≥ 10 µM
15 | B7 | ≥ 10 µM
16 | Ac-FDA[R8]DDAAFS[PyrS]FWQ-NH2 (staple 4-11, stapled peptide) [I-164] | 3.61 µM
17 | B8 | 1.41 µM
18 | Ac-[Aib]DA[R8]DEAAFV[PyrS]FWQ-NH2 (staple 4-11; also: earlier-eluting staple isomer, stapled peptide) [I-157] | 4.06 µM
19 | B9 | 1.79 µM
20 | B10 | ≥ 10 µM
21 | Ac-ADA[RdN]DEAAFQ[S7]FWH-NH2 (staple 4-11, stapled peptide composition) [I-156] | 4.18 µM
22 | Ac-[αAllylPro]DA[B5(16)]DEAAFV[S8]F[Trp(5-OMe)]Q-NH2 (staple 1-4, 4-11, stapled peptide composition) [I-165] | 1.23 µM
23 | Ac-DI[RdN]DDAAFQ[S7]FW-NH2 (staple 3-10, stapled peptide composition) [I-151] | 5.5 µM
24 | B11 | 5.35 µM
25 | B12 | ≥ 10 µM

Target: T2, full-length beta-Catenin (Uniprot ID …)
Experiment: AlphaScreen competition: full-length beta-catenin + biotin-TCF4(10-53) probe, peptide titrated
Method: as §1

Row | Binder | EC50
26 | B13 | 3.69 µM
27 | B14 | 3.47 µM
28 | B15 | 2.83 µM
29 | B16 | 3.69 µM
30 | B17 | 4.91 µM
31 | B18 | 2.83 µM
32 | B19 | 4.91 µM
